Measured values from article PMC6854463, “Structural Basis for Broad HIV-1 Neutralization by the MPER-Specific Human Broadly Neutralizing Antibody LN01” (Cell Host & Microbe, 2019).
Numbering of substitutions follows the chain as printed. Values joined by “and” are separate entries in the source; they are usually repeats but may differ in a detail not shown here. Equal values may be shown once.

B1: LN01 gH/UCA (antibody, V domains shown)
VH: QLQLQESGPGLVKPSETLSLTCTVSGGSISSSSYYWGWIRQPPGKGLEWIGSIYYSGSTYYNPSLKSRVTISVDTSKNQFSLKLSSVTAADTAVYYCVRMPSHGFWSTSFSYWYFDLWGRGTLVTVSS
VL: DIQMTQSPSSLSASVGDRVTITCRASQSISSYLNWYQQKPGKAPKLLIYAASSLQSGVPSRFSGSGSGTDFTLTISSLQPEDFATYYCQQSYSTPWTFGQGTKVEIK
notes: IgG; source: Expi293F, transient transfection (PEI), purified by protein A chromatography
B2: LN01 UCA/sL (antibody, V domains shown)
VH: B1 VH with T108G, S109Y
VL: DIQMTQSPSSLSASVGDKVTITCRASQSVTKYLNWYQFKTGQAPRILIYGTYTLLSGVSPRFSGAGSGSLYTLTITNIQPEDFATYYCQQAHSTPWTFGQGTHVAAN
notes: as for B1
B3: LN01 UCA/UCA (antibody, V domains shown)
VH: B1 VH with T108G, S109Y
VL: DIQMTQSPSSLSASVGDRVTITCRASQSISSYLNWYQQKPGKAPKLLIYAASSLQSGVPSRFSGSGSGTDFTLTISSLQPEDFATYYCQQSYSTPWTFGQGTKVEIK
notes: also called the UCA version of LN01; source: Expi293F, transient transfection (PEI), purified by protein A chromatography
B4: LN01 UCA/gL (antibody, V domains shown)
VH: B1 VH with T108G, S109Y
VL: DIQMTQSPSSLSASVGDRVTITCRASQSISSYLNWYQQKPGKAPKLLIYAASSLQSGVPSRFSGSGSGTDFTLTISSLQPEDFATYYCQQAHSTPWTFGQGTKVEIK
notes: as for B1
B5: LN01 gH/gL (antibody, V domains shown)
VH: B1 VH
VL: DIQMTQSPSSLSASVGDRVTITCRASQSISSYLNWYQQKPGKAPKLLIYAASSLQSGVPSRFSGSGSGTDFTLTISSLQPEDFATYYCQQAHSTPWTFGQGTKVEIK
notes: as for B1
B6: LN01 gH/sL (antibody, V domains shown)
VH: B1 VH
VL: B2 VL
notes: as for B1
B7: LN01 sH/gL (antibody, V domains shown)
VH: QVQLEESGPGLVQPWGTLSLTCRVSGDSVSNDNYYWAWIRQTPGRELQVIGTIYYSGTTYYNPSLRNRVTISLDKSVNVVSLRLGSVSAADTAQYYCVRMPSHGFWSTSFSYWYFDLWGRGHFVAVSW
VL: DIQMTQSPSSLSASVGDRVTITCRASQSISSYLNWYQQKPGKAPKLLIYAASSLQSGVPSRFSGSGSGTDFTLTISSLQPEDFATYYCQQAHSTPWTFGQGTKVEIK
notes: as for B1
B8: LN01 recombinant IgG1 monoclonal antibody (antibody, V domains shown)
VH: B7 VH
VL: B2 VL
notes: also called LN01 IgG1; IgG1 LN01 antibody; source: Expi293F, transient transfection (PEI), purified by protein A chromatography
B9: LN01 sH/gL-FR (antibody, V domains shown)
VH: B7 VH
VL: DIQMTQSPSSLSASVGDRVTITCRASQSVTKYLNWYQQKPGKAPKLLIYGTYSLQSGVPSRFSGSGSGTDFTLTISSLQPEDFATYYCQQAHSTPWTFGQGTKVEIK
notes: as for B1

What was measured:
Details in all cases: both partners purified
[1] = target: T1, MPER-TM2 (gp41 residues 630-711, containing the complete TM region) (HIV-1 group M; Env Q74599 (HXB2-like), …, UniProt Q74599); experiment: BLI; Octet Red; biotinylated IgG on Streptavidin biosensors; MPER-TM2 in 25 mM HEPES pH 7.5, 150 mM NaCl, 0.1 % Fos-Choline-12, 25°C; global fit 1:1 model or steady state analysis
T1 construct: not shown: His-tag, N-terminal, cleaved; flag-tag, N-terminal, cleaved

[2] = target: T1, MPER-TM2 (gp41 residues 630-711, …); experiment: SPR
[3] = target: T2, MPER-TM1 peptide (gp41 residues 671-689) (HIV-1, strain  (6SNC maps to …)); experiment: SPR
T2 construct: also called gp41 MPER-TM1; source: synthetic peptide (Smart Bioscience, Grenoble)

| Binder | Kd [1] [nM] | binding result [1] | other results |
| --- | --- | --- | --- |
| B1 | 4700 ± 1700 |  |  |
| B2 |  | no binding |  |
| B3 |  | no binding |  |
| B4 |  | no binding |  |
| B5 | 1400 |  |  |
| B6 | 6.2 ± 0.02 |  |  |
| B7 | 453 ± 82 |  |  |
| B8 | 2.3 ± 0.01 |  | Kd [2]: 13 nM; Kd [3]: 161 nM and 170 nM |
| B9 | 7 ± 0.03 |  |  |
